Assay results from US20250236663A1 (NEURACLE SCIENCE, published 2025).

Assays:
[1] = target: T1, FAM19A5 mutant M6 (human); assay: ELISA on phage-displayed FAM19A5 mutants; y axis without label
T1 construct: FAM19A5 with region 6 replaced by the consensus of FAM19A1-4; The entry already carries the changes
T1 chain: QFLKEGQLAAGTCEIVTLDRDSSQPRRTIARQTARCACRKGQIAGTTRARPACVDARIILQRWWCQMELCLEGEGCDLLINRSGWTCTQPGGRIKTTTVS

[2] = target: T2, FAM19A5 mutant M7 (human); assay: as above
T2 construct: FAM19A5 with region 7 replaced by the consensus of FAM19A1-4; The entry already carries the changes
T2 chain: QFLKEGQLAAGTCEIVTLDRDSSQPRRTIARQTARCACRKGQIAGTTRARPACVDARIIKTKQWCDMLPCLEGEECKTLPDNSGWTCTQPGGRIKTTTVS

[3] = target: T3, FAM19A5 mutant M8 (human); assay: as above
T3 construct: FAM19A5 with region 8 replaced by the consensus of FAM19A1-4; The entry already carries the changes
T3 chain: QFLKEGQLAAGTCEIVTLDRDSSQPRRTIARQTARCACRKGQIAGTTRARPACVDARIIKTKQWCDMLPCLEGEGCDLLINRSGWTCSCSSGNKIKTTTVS

[4] = target: T4, FAM19A5-M3; assay: ELISA on phage-displayed FAM19A5 mutants; y axis without label; IgG only bars 0.02 to 0.2
T4 construct: also called FAM19A5 mutant M3
T4 FAM19A5 mutant: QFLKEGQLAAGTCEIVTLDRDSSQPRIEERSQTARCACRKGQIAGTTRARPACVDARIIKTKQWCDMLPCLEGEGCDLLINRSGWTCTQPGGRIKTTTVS

[5] = target: T5, FAM19A5 fragment 5 mutant peptide F5-2 (#2) (human); assay: ELISA on the coated F5 mutant peptide
T5 construct: The entry already carries the alanine substitution and Ser for Cys; also called mutant peptide #2
T5 sequence (peptide, as listed by the source mutant): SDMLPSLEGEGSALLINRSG
Description: (§1) Overlapping peptide fragments (F1-F6, see FIG. 9) of the human FAM19A5 protein were synthesized and conjugated to BSA. Binding of the different anti-FAM19A5 antibodies to the BSA-conjugated peptide fragments F1-F6 was determined by Western blot analysis or ELISA assay. For the Western blot analysis, BSA-conjugated FAM19A5 fragments F1-F6 were separated by SDS polyacrylamide gel electrophoresis and transferred to a nitrocellulose membrane by the standard procedure. The membrane was incubated with the anti-FAM19A5 antibody (e.g., 1-65, 2 μg/ml, 1-65-scFv-rabbit Fc-SSS), and the antigen-antibody complexes were detected with the appropriate secondary antibody conjugated with horse-radish peroxidase (anti-rabbit IgG (Fc specific)-HRP, 1:4000 dilution). For the ELISA assay, the following protocol was used. FAM19A5 fragment F1-F6 (diluted to 1 μg/mL in 50 mM carbonate buffer (Biosesang) or to 20 μg/mL for high concentration analysis) were used to coat the wells of 96-well immuno plates (Thermo Scientific) (100 μL/well) overnight at 4° C. and then subsequently washed twice in 1×PBS. The plates were then blocked with the blocking buffer (100 μL/well) for 1 hour at room temperature. During the 1-hour incubation, the relevant anti-FAM19A5 antibodies were diluted to 1 μg/mL (or 20 μg/mL for high concentration analysis) in the diluent buffer. Once the plates were washed (2× using 1×PBS), the diluted anti-FAM19A5 antibodies were added to the appropriate wells, and the plates were incubated at room temperature for 1 hour. The plates were subsequently washed for a total of five times using the washing buffer. Next, the ODP substrate (prepared by dissolving one ODP tablet (O-phenylenediamine Dihydrochloride, Thermo) into 9 mL of sterilized deionized water and 1 mL of 10× stable Peroxide Stable buffer (Theromo)) was added to each of the wells, and the color change reaction was allowed to occur for 10 minutes. This reaction was stopped by adding 100 μL of 2N H2SO4 (Daejung) to the wells. The absorption value of each of the wells was detected at 492 nm using a 96-well microplate reader (Molecular Device).
(§2) Next, to identify the specific amino acid residues within the epitope fragment F5 that the 1-65 and P2-C12 antibodies bind to, different amino acid residues of the F5 fragment were replaced with alanine as shown in Table 9 (below).

[6] = target: T6, FAM19A5 fragment 5 mutant peptide F5-6 (#6) (human); assay: ELISA on the coated F5 mutant peptide
T6 construct: The entry already carries the alanine substitution and Ser for Cys; also called mutant peptide #6
T6 sequence (peptide, as listed by the source mutant): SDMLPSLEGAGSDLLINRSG
Description: as §1, §2

[7] = target: T7, FAM19A5 fragment 5 mutant peptide F5-7 (#7) (human); assay: ELISA on the coated F5 mutant peptide
T7 construct: The entry already carries the alanine substitution and Ser for Cys; also called mutant peptide #7
T7 sequence (peptide, as listed by the source mutant): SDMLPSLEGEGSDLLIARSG
Description: as §1, §2

[8] = target: T8, FAM19A5 fragment 5 mutant peptide F5-4 (#4) (human); assay: ELISA on the coated F5 mutant peptide
T8 construct: The entry already carries the alanine substitution and Ser for Cys; also called mutant peptide #4
T8 sequence (peptide, as listed by the source mutant): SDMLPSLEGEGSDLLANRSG
Description: as §1, §2

[9] = target: T9, FAM19A5 fragment 5 mutant peptide F5-5 (#5) (human); assay: ELISA on the coated F5 mutant peptide
T9 construct: The entry already carries the alanine substitution and Ser for Cys; also called mutant peptide #5
T9 peptide: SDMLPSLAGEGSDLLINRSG
Description: as §1, §2

[10] = target: T10, FAM19A5 fragment 5 mutant peptide F5-3 (#3) (human); assay: ELISA on the coated F5 mutant peptide
T10 construct: The entry already carries the alanine substitution and Ser for Cys; also called mutant peptide #3
T10 sequence (peptide, as listed by the source mutant): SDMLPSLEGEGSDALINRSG
Description: as §1, §2

[11] = target: T11, FAM19A5 fragment 5 mutant peptide F5-8 (#8) (human); assay: ELISA on the coated F5 mutant peptide
T11 construct: The entry already carries the alanine substitution and Ser for Cys; also called mutant peptide #8
T11 peptide: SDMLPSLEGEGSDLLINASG
Description: as §1, §2

[12] = target: T12, FAM19A5 fragment 5 mutant peptide F5-1 (#1) (human); assay: ELISA on the coated F5 mutant peptide
T12 construct: The entry already carries the alanine substitution and Ser for Cys; also called mutant peptide #1
T12 peptide: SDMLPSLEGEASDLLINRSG
Description: as §1, §2

[13] = target: T8, FAM19A5 fragment 5 mutant peptide F5-4 …; assay: ELISA on alanine-substituted F5 peptides (I16 to alanine)
Description: Overlapping peptide fragments (F1-F6, see FIG. 9) of the human FAM19A5 protein were synthesized and conjugated to BSA. Binding of the different anti-FAM19A5 antibodies to the BSA-conjugated peptide fragments F1-F6 was determined by Western blot analysis or ELISA assay. For the Western blot analysis, BSA-conjugated FAM19A5 fragments F1-F6 were separated by SDS polyacrylamide gel electrophoresis and transferred to a nitrocellulose membrane by the standard procedure. The membrane was incubated with the anti-FAM19A5 antibody (e.g., 1-65, 2 μg/ml, 1-65-scFv-rabbit Fc-SSS), and the antigen-antibody complexes were detected with the appropriate secondary antibody conjugated with horse-radish peroxidase (anti-rabbit IgG (Fc specific)-HRP, 1:4000 dilution). For the ELISA assay, the following protocol was used. FAM19A5 fragment F1-F6 (diluted to 1 μg/mL in 50 mM carbonate buffer (Biosesang) or to 20 μg/mL for high concentration analysis) were used to coat the wells of 96-well immuno plates (Thermo Scientific) (100 μL/well) overnight at 4° C. and then subsequently washed twice in 1×PBS. The plates were then blocked with the blocking buffer (100 μL/well) for 1 hour at room temperature. […] The absorption value of each of the wells was detected at 492 nm using a 96-well microplate reader (Molecular Device). […]

- binding result [1]: no binding
- binding result [2]: no binding
- binding result [3]: no binding
- binding result [4]: binds
- O.D (492nm) [5]: 0.155
- binding result [5]: no binding
- O.D (492nm) [6]: 1.41
- O.D (492nm) [7]: 1.64
- O.D (492nm) [8]: 0.688
- O.D (492nm) [9]: 1.57
- O.D (492nm) [10]: 0.15
- binding result [10]: no binding
- O.D (492nm) [11]: 0.181
- binding result [11]: no binding
- O.D (492nm) [12]: 1.5
- binding result [13]: no binding
B1: chimeric anti-FAM19A5-IgG2/4 monoclonal antibody (1-65) (antibody, V domains shown)
VH: AVTLDESGGGLQTPGGALSLVCKASGFTFSSYQMGWVRQAPGKGLEWVGVINKSGSDTSYGSAVKGRATISRDNGQSTVRLQLNNLRAEDTGTYFCAKGSASYITAATIDAWGHGTEVIVSS
VL: ALTQPSSVSANPGETVKITCSGGGSSGYGYGWYQQKSPSSAPLTVIYWNDKRPSDIPSRFSGSKSGSTHTLTITGVQAEDEAVYFCGNDDYSSDSGYVGVFGAGTTLTVL
notes: Chicken-derived variable domains; also called anti-FAM19A5 antibody 1-65; Anti-FAM19A5 (1-65)
